Data as given in US20140335016A1.

Molecular target: amyloid-β 1-42 fibers (fAβ42) (human) (UniProt P05067)
Assay: cell-based or functional assay

Chain of amyloid-β 1-42 fibers (fAβ42) (human) (P05067 672-713 limits assumed): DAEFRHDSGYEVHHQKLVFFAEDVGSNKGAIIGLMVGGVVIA

Substance “M13 filamentous bacteriophage, Construct 2 (wild type M13 isolate, GenBank JX412914.1)” has a filter trap assay, concentration that reduces aggregates to a similar level of 1.7 nM.
